# Numbering of substitutions follows the chain as printed.
# T1: human TPBG antigen immobilized on a CM5 chip (human, UniProt Q13641 32-355, limits assumed)
# T1 sequence (looked up): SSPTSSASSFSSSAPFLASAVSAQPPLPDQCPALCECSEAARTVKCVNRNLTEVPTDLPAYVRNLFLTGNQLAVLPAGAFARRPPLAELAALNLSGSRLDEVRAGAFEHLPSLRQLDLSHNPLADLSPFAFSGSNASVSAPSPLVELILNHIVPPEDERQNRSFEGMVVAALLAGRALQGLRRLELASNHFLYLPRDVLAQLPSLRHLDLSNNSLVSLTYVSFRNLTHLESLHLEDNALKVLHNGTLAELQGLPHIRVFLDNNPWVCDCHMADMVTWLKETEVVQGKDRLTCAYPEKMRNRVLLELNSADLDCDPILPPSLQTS
# T2: human TPBG protein, full-length, on the cell surface (human, UniProt Q13641 32-420)
# T2 sequence (looked up): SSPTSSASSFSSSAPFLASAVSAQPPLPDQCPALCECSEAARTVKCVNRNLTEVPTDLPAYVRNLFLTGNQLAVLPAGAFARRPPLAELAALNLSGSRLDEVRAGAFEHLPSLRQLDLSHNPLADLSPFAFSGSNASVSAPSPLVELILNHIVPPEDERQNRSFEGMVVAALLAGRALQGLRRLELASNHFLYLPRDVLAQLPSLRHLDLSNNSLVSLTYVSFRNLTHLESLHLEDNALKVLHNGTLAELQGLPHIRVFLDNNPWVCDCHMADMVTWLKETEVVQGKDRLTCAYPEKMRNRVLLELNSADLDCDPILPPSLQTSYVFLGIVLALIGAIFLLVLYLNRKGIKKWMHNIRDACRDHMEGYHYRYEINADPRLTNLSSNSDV
# T3: human TPBG-hFc protein (human, UniProt Q13641 32-355)
# T3 construct: range 32-355; Expressed in HEK293 cells, purified on protein A; also called immunogen A; hFc tagged TPBG protein; not shown: human IgG Fc fragment of the pCpC vector
# T3 sequence (looked up): T1 sequence (looked up)
# B1: Humanized antibody 12B12-4 (antibody, V domains shown)
# VH: EVQLVESGGGLVQPGGSLRLSCAASGFTFSNFGMHWVRQAPGKGLEWVSYISSGSTSFYYADTVKGRFTISRDNAKNSLYLQMNSLRDEDTAVYYCARTNSLLRGFFDAWGQGTTVTVSS
# VL: DIVLTQSPDSLAVSLGERATINCRASQSVSSSSYTYLHWYQQKPGQPPKLLIKSASNLESGVPDRFSGSGSGTDFTLTISSLQAEDVAVYYCQHSWEIPLTFGQGTKLEIK
# notes: also called h12B12-4
# B2: Humanized antibody 12B12-16 (antibody, V domains shown)
# VH: B1 VH with L11V, G16R, S49A, A75S, S78T, D88A, A97S
# VL: DIVLTQTPLSLSVTPGQPASISCRASQSVSSSSYTYLHWYLQKPGQPPQLLIKSASNLESGVPDRFSGSGSGTDFTLKISRVEAEDVGVYYCQHSWEIPLTFGQGTKLEIK
# notes: also called h12B12-16
# B3: Humanized antibody 12B12-5 (antibody, V domains shown)
# VH: B1 VH with A97S
# VL: B1 VL
# notes: also called h12B12-5
# B4: Humanized antibody 28D4-8 (antibody, V domains shown)
# VH: EVQLVESGGGLVKPGGSLRLSCAASGFTFSNYVMSWARQAPGKRLEWVAEISTGGSHTYYSDTVTGRFTISRDNAKKSLYLQMNSLRAEDTAVYYCIMFYYGSSYSMDYWGQGTTVTVSS
# VL: DIQMTQSPSSLSASVGDRVTITCRASQDIRNYLNWYQQKPGKAPKLLIYHTSRLHSGVPSRFSGSGSGTDYTFTISSLQPEDIATYYCQQGDTLPLTFGQGTRLEIK
# notes: also called h28D4-8
# B5: Humanized antibody 28D4-12 (antibody, V domains shown)
# VH: B4 VH
# VL: B4 VL with A43T, P44V, Y87F
# notes: also called h28D4-12
# B6: Humanized Antibody 12B12-12-MMAE (antibody, V domains shown)
# VH: B1 VH
# VL: B2 VL
# modifications: MC-VC-PAB-MMAE on cysteines reduced with TCEP (sites not given), DAR about 3.0-5.0 per antibody
# B7: Humanized antibody 12B12-14 (antibody, V domains shown)
# VH: B1 VH with S49A, A97S
# VL: B2 VL
# notes: also called h12B12-14
# B8: Humanized antibody 12B12-6 (antibody, V domains shown)
# VH: B1 VH with S49A, A97S
# VL: B1 VL
# notes: also called h12B12-6
# B9: Humanized antibody 12B12-10 (antibody, V domains shown)
# VH: B1 VH with S49A, A97S
# VL: B2 VL with L4M, K53Y
# notes: also called h12B12-10
# B10: Humanized antibody 12B12-11 (antibody, V domains shown)
# VH: B1 VH with L11V, G16R, S49A, A75S, S78T, D88A, A97S
# VL: B2 VL with L4M, K53Y
# notes: also called h12B12-11
# B11: Humanized antibody 12B12-7 (antibody, V domains shown)
# VH: B1 VH with L11V, G16R, S49A, A75S, S78T, D88A
# VL: B1 VL
# notes: also called h12B12-7
# B12: Humanized antibody 12B12-1 (antibody, V domains shown)
# VH: B1 VH with A97S
# VL: B1 VL with L4M, K53Y
# notes: also called h12B12-1
# B13: Humanized antibody 12B12-8 (antibody, V domains shown)
# VH: B1 VH with L11V, G16R, S49A, A75S, S78T, D88A, A97S
# VL: B1 VL
# notes: also called h12B12-8
# B14: Humanized antibody 12B12-2 (antibody, V domains shown)
# VH: B1 VH with S49A, A97S
# VL: B1 VL with L4M, K53Y
# notes: also called h12B12-2
# B15: Humanized antibody 12B12-3 (antibody, V domains shown)
# VH: B1 VH with L11V, G16R, S49A, A75S, S78T, D88A, A97S
# VL: B1 VL with L4M, K53Y
# notes: also called h12B12-3
# B16: Humanized antibody 12B12-9 (antibody, V domains shown)
# VH: B1 VH with A97S
# VL: B2 VL with L4M, K53Y
# notes: also called h12B12-9
# B17: Humanized antibody 12B12-13 (antibody, V domains shown)
# VH: B1 VH with A97S
# VL: B2 VL
# notes: also called h12B12-13
# B18: Humanized antibody 28D4-6 (antibody, V domains shown)
# VH: B4 VH with A37I, R44G, A49S, K77N
# VL: B4 VL
# notes: also called h28D4-6
# B19: Humanized antibody 28D4-1 (antibody, V domains shown)
# VH: B4 VH with A37I, R44G, A49S, K77N, I97A, M98R
# VL: B4 VL with Y71F
# notes: also called h28D4-1
# B20: Humanized antibody 28D4-11 (antibody, V domains shown)
# VH: B4 VH with A37I, R44G
# VL: B4 VL with A43T, P44V, Y87F
# notes: also called h28D4-11
# B21: Humanized antibody 28D4-10 (antibody, V domains shown)
# VH: B4 VH with A37I, R44G, A49S, K77N
# VL: B4 VL with A43T, P44V, Y87F
# notes: also called h28D4-10
# B22: Humanized antibody 28D4-2 (antibody, V domains shown)
# VH: B4 VH with A37I, R44G, A49S, K77N
# VL: B4 VL with Y71F
# notes: also called h28D4-2
# B23: Humanized antibody 28D4-9 (antibody, V domains shown)
# VH: B4 VH with A37I, R44G, A49S, K77N, I97A, M98R
# VL: B4 VL with A43T, P44V, Y87F
# notes: also called h28D4-9
# B24: Humanized antibody 28D4-5 (antibody, V domains shown)
# VH: B4 VH with A37I, R44G, A49S, K77N, I97A, M98R
# VL: B4 VL
# notes: also called h28D4-5
# Target: T1, human TPBG antigen immobilized on a CM5 …
# Test: SPR (Biacore), human TPBG antigen immobilized on CM5 chip
# Method: To assess the binding specificity and affinity of the humanized anti-TPBG antibody, Biacore analysis was performed using human TPBG antigen immobilized on a CM5 chip. Biacore technique utilizes the change in the refractive index of surface layer after antibody binding to the TPBG antigen immobilized on the surface layer. The binding was determined by surface plasmon resonance (SPR) through detecting the laser refracted from the surface. Non-specific and specific interactions were distinguished by analysis of signal kinetics binding rate and dissociation rate. Chimeric antibodies 12B12 and 28D4 were used as controls.
Binder,Kd,koff,kon
B1,0.022 nM,3.46e-05 s⁻¹,1.58e+06 M⁻¹ s⁻¹
B2,0.0229 nM,3.65e-05 s⁻¹,1.59e+06 M⁻¹ s⁻¹
B3,0.0179 nM,2.1e-05 s⁻¹,1.17e+06 M⁻¹ s⁻¹
B4,0.0296 nM,3.01e-05 s⁻¹,1.02e+06 M⁻¹ s⁻¹
B5,0.0381 nM,3.94e-05 s⁻¹,1.03e+06 M⁻¹ s⁻¹

# Target: T2, human TPBG protein, full-length, on the …
# Test: cell-based or functional assay
Binder,"IC50 of cell killing, MDA-MB-468 cells (CellTiter-Glo, 5 days)","IC50 of cell killing, NCI-H1568 cells (CellTiter-Glo, 5 days)","IC50 of cell killing, NCI-H1975 cells (CellTiter-Glo, 5 days)"
B6,0.27 nM,0.43 nM,1.2 nM

# Target: T3, human TPBG-hFc protein
# Test: ELISA, coated human TPBG-hFc
# Method: The purified human TPBG-hFc obtained from step (1) diluting with PBS to a final concentration of 1.0 μg/mL was aliquoted into a 96-well ELISA plate at 100 μL per well, and sealed with a parafilm and incubated at 4° C. overnight. The plate was washed twice with plate washing buffer (PBS containing 0.01% (v/v) Tween 20), and blocked with blocking buffer (PBS containing 0.01% (v/v) Tween 20 and 1% (w/w) BSA) at room temperature for 2 h. The blocking buffer was discarded, and […] per well of the purified antibody TPBG was added. After incubating at 37° C. for 2 h, the plate was washed for three times with plate washing buffer (PBS containing 0.01% (v/v) Tween 20). HRP (horseradish peroxidase)-labeled secondary antibody (purchased from Sigma) was added and incubated at 37° C. for 2 h, and the plate was washed for three times using plate washing buffer (PBS containing 0.01% (v/v) Tween 20). 100 μL of TMB substrate was aliquoted into each well, incubated at room temperature for 30 min, and 100 μL of stop buffer (1.0 N HCl) per well was subsequently added. A_{450 nm} values were read using the ELISA plate reader (SpectraMax 384plus purchased from Molecular Device), and the results were shown in Table 5. […] In Table 5 the IgG control herein is a mice IgG control, the data in the Table are OD_{450 nm} values, and Blank represents the OD_{450 nm} value of PBS buffer in the plate.
# The purified humanized TPBG antibody obtained from Embodiment 1 was reacted with human TPBG-hFc, for the method, see (5) Identification of lead antibody in Embodiment 1. The EC50 in Table 11 and Table 12 are calculated according to the OD450 nm value of the h12B12 variants and the h28D4 variants, respectively. […] FIGS. 7A and 7B are the binding reactions of purified humanized h12B12 variants to human TBPG-hFc protein, and FIGS. 8A and 8B are the binding reactions of the purified humanized h28D4 variants to human TBPG-hFc protein.
row,Binder,EC50
1,B7,0.257 nM
2,B8,0.362 nM
3,B1,0.227 nM
4,B9,0.25 nM
5,B10,0.239 nM
6,B11,0.367 nM
7,B12,0.248 nM
8,B2,0.2 nM
9,B13,0.287 nM
10,B14,0.274 nM
11,B15,0.333 nM
12,B16,0.223 nM
13,B17,0.289 nM
14,B3,0.253 nM
15,B4,0.162 nM
16,B18,0.205 nM
17,B19,0.364 nM
18,B20,0.191 nM
19,B21,0.224 nM
20,B22,0.181 nM
21,B23,0.218 nM
22,B5,0.167 nM
23,B24,0.782 nM
